Data taken from the DeepSol protein solubility set.

experiment: soluble on expression in E. coli; label from the status in PepcDB or PDB records

Sequence	soluble on expression in E. coli
MSLNVLHVASECNPFFKTGGLADVLGSLPKALIKQGINVSVILPKYGHLSDEWQNQLTLKKSFTVSVTWRNQYCGLEQFVDQGVTYYFIDNEYYFKRERLYGYLDEAERFTFFNHAVLSSLPFLDESPDLIHCHDWQSGLIPAYMKTGSVENPVPTVFTIHNLRYQGAFPPDVFRELLHFAPEHFAGLEMDGAINFLKGALVHSDRVTTVSPTYAQEIQTPAFGEGLHGLLHQERGKTRGILNGIDLEDFDPKTDPHVTYPYKHNQMEKRKNKQVIQRLFELPERKDIPLIAMVSRLVEEKGVPLLTQIAGELVTTENVQLAILGTGDPSLEDQLHHLASLHPHQISFKCVFAEPLARKLYAGADLFIMPSRFEPCGLSQMISLRYETVPIVRETGGLYDTIQSYNEEIGEGNGFSFTHYNAHDFLYTIKRALRFYRTEKEWENLLLNIYSSEVGWDVSAKQYTALYEEILGKRKVEAEGHHHHHH	not soluble
MGSDKIHHHHHHMEISMRFTDINQERERILSCPVPGYFPRKDSFLELERLIGLREVKRTLAEVAAFTLIQNRRSELRLKSDPTALHMVFKGNPGTGKTTVARILGRVFNEIGILSKGHLLEVERADLVGEYIGHTAQKTREILKRAMGGIVFIDEAYSLAQGGERDFGKEAISTLVKAMEDYRDNLVVILAGYSQEIDRFLKSNPGLRSRFPIHIDFCDYNAEELFQIALQIYQEREYELTSRCRWKLKQQLNEFVKNRHSHSGNARYVRNLAEKSIRLQALRIVDKDAPVRRDLVTIEEADLPDPRSIQA	not soluble
MNEMPVQPTPAPPVDAPSPDGDRDLFGWRVRADLPLPELPVWAGDGRAPDILIRVAAVSPLDDGAQVFSPRIRFIEATLCFDVPDVARYRVDGGHLVTIEAARGIAADAPEIRLFFFGTVLAVLCFRRGLIPLHASAVALDGRALLLSGESGTGKSTLAAALLARGYPLLSDDLCALDVSCPDKPMILPCTAHLKLWGDAAARLGIATDGMTPVRRHLDKFRIPVRSASDAPLGPGTIIRLKRVTRAEQVGTRPLLGAEALCYDLIHRFRLGIALGYQSTMLTALAPLVRSAPIIQLNRRDDLGALPDLADHVIRLARDERRDLEHHHHHH	not soluble
MIRYMIKESRMELIEENMKHLQDRLKTAKENEMSAKTVRHDFRHHNQNIATMIQKGETNEALHYIEQYNESLDAARTKEFCSHVTVNAILSSFYIKAQNDGICISIEADTQEGTNISDMDFVAILSNILENAVNGCKECGAHGKINVNIRTVSDKTVIVCSNSCKPGLVIENNMIKHRGIGIESMLTAARKYDGDISYRLENDVLTLCVILKK	not soluble
NRNFSIQMKGTFTYAHNEVLKYDEAAGLRPALSQVGKSLNSIWGYVADGLYIDEADIANNPQSTIGNIAIAPGDVKYVDQPDASGNYDGKITSDDRVVLGYPTIPEIIYGFGPSITWKNWDFSFFFQGQARVSFMMSGFEPFGTQSKNNVLKWISDDHWSKDNQNPNARYPRLTQYNNNNNTASSSYWLRNASFLKLRNAEIGYRFKWARIYVNGSNLLTFSPFKLWDPEMGGGAGMKYPTQRTYNVGIQLTFK	not soluble
MSLNRIAFSAAHVVADPLAASDPWLEAAIDWDHTIAYRQRLWDLGLGVAEAMDTAQRGMGLDWPTSLDLIRRSVEAAKAHGPEALVFSGAGTDHLAPEAARSLDDVIRAYEEQVAAVEKVGGRIILMASRALARIGTSAADYETVYGRILSQVREPVIIHWLGDMFDPALAGYWGTRDLDAAMDTAVAIINAHAAKVDGVKISLLDKDKEIAMRRRLDPAVRMYTGDDFNYAELVAGDAQGYSHALLGIFDAIAPAASAALTALAAGDEAGFHDILAPTVPLSRHIFRAPTRFYKTGVVFMAYLNGHQDHFTMVGGQESARSTLHLAELFRLADRAGLLTDPDLAVQRMRAVLAVRGVEAEGHHHHHH	not soluble
MDNKIVYVVSDSVGETADLVVRAAMGQFPFAPDIRRVPYVEDTGTLKEVISIAKSNQALICFTLVKPDMRQYLVTEAAKEGVEAYDIIGPLIDQIEEITGQVPRYEPGVVRRLDEEYFKKIEAIEFAVKYDDGRDARGILKADIVLIGVSRTSKTPLSQYLAHNKRLKVANVPLVPEVDPPEELYQVAKEKCFGLKITPDKLNHIRKERLKSLGLSDGATYANINRIQEEIDHFEEVISRINCQVIDVSNKAIEETANIIVNAVQNQKMF	not soluble
MESGFTACISIITGVKSIYRWKNNIEENQEIMCFFKTAEDTSSHSLYRGVITSS	not soluble
MTSSSSPSQDTKRLAQTYPEGLRADALMEEDVAWNRGNDSQWDGEQFDRSDRAALRRVAGLSTELEDVTEVEYRQLRLERVVLVGVWTSGTVQDAENSLAELAALAETAGALVLDGVVQRRDKPDAATYIGSGKAEELRDVVLHTGADTVICDGELSPGQLIHLEDVVKVKVIDRTALILDIFAQHAKSREGKAQVALAQMQYMLPRLRGWGQSLSRQMGGGKGGGLATRGPGETKIETDRRRIREKMAKMRREIAEMKTGREIKRQERKRHKVPSVAIAGYTNAGKSSLLNRLTGAGVLVENALFATLDPTVRRAETPSGRLYTLADTVGFVRHLPHHLVEAFRSTMEEVGDSDLILHVVDGSHPVPEEQLAAVREVIRDVGATDVPEIVVINKADMADPLVLQRLLRIEKRAIAVSARTGQNIDQLLALIDNELPRPSVEIEALVPYTHGKLVARAHDEGEVISEEHTPEGTLLKVRVHEELAAELAPYVPAPLALEHHHHHH	not soluble
RENFPGVSWDSLPDELLLGIFSCLCLPELLKVSGVCKRWYRLASDESLWQTLDLTGKNLHPDVTGRLLSQGVIAFRCPRSFMDQPLAEHFSPFRVQHMDLSNSVIEVSTLHGILSQCSKLQNLSLEGLRLSDPIVNTLAKNSNLVRLNLSGCSGFSEFALQTLLSSCSRLDELNLSWCFDFTEKHVQVAVAHVSETITQLNLSGYRKNLQKSDLSTLVRRCPNLVHLDLSDSVMLKNDCFQEFFQLNYLQHLSLSRCYDIIPETLLELGEIPTLKTLQVFGIVPDGTLQLLKEALPHLQINCSHFTTIARPTIGNKKNQEIWGIKCRLTLQKPSCL	soluble
MRLVEIGRFGAPYALKGGLRFRGEPVVLHLERVYVEGHGWRAIEDLYRVGEELVVHLAGVTDRTLAEALVGLRVYAEVADLPPLEEGRYYYFALIGLPVYVEGRQVGEVVDILDAGAQDVLIIRGVGERLRDRAERLVPLQAPYVRVEEGGIHVDPIPGLFDLEHHHHHH	not soluble
MGSDKIHHHHHHMEQDTSMITWHHSPAHLFVPNAFYIVTASTLCHQPLFNSPQKLHILQSTLFEIMQAYNWRLQAWAVFSNHYHFIAQSPEDSSSLKPLIQRFHSQTARAINVLDGSKGRKVWFQYWDTCLTYEQSYLARLNYVHNNPVKHGASRECRAVSLLFSYMV	not soluble
MAHHHHHHMRHLYGPAPGCVLLSFDFNQMELRVLAHLSGDELLIKHLSSEYDVLSAMTRHITGLSDDEQVPPHLRETVKVVVYGLFYGMGLATMKERVKILMDSAHSVPSSQRKFTADTLLRAFHQRYPAAGKFLTRARIRAFHEARCVTLTGINDLSSEKDGNRRRQHSIARILQGSSSTLFQSAMVKVHERRHDIVPNLPAAPFALVLCIHDELIYSVVEGYVDVVARKIKGIMVEQAQVFSLRVPLRVSVKVGKTFGSLEKLDVP	soluble
LLELLLLTSELYPDPVLPALSLLPHTVRTAPAEASSLLEAGNADAVLVDARNDLSSGRGLCRLLSSTGRSIPVLAVVSEGGLVAVSADWGLDEILLLSTGPAEIDARLRLVVGRRGDLADQESLGKVSLGELVIDEGTYTARLRGRPLDLTYKEFELLKYLAQHAGRVFTRAQLLHEVWGYDFFGGTRTVDVHVRRLRAKLGPEHEALIGTVRNVGYKAVRPARGRPPAADPDDEDADPGRDGMQEPLVDPLRSQ	not soluble
DIRPSKLLTWCQQQTEGYQHVNVTDLTTSWRSGLALCAIIHRFRPELINFDSLNEDDAVENNQLAFDVAEREFGIPPVTTGKEMASAQEPDKLSMVMYLSKFYELFRGTPLRPV	soluble
